Reference: the supplement of paper PMC9170038

Test system: K4 kissing-loop RNA reporter
Assay: apparent KD of K4 kissing-loop reporter; higher = weaker reporter binding
Conditions: Eterna round: R107
Method: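 RNA-MaP round R107: designed RNA switches with theophylline, tryptophan, arginine or FMN aptamers are transcribed on-chip within common flanks. They are titrated with a labelled K4 kissing-loop RNA reporter in RNA-MaP buffer (100 mM Tris pH 7.5, 80 mM KCl, 4 mM MgCl2), without ligand or with the indicated ligand. Median apparent KD per design.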

[1] = input ligand: theophylline 20 uM
[2] = input ligand: tryptophan 2.4 mM
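Note: bound reporter read as fluorescence of individual clusters on recovered sequencing chips by microscopy, with normalized cluster intensities fitted with a binding model.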

| Sequence | apparent KD of K4 kissing-loop reporter (input ligand: FMN 200 uM) [nM] | apparent KD of K4 kissing-loop reporter (input ligand: arginine 13.2 mM) [nM] | apparent KD of K4 kissing-loop reporter (input ligand: none) [nM] | apparent KD of K4 kissing-loop reporter [1] [nM] | apparent KD of K4 kissing-loop reporter [2] [nM] |
| --- | --- | --- | --- | --- | --- |
| AAAUUUGCUCAUGAUACCAGCCAGUGAUGUUGGUUGGUCCACCGUGUCCGAACAUUAAGCGGCCCUUGGCAGCAUGAUGCGCGUA [Ininveaen] | 129 | 105 | 116 | 143 | 112 |
| AGUCCACUCUAAAGAGUGGACCUAAGGGAUACCAGUGAUGUUGGUCACCCUUGGCAGCCCGCUGUCAUCGAUAAAGAUGGCAGGA | 133 | 113 | 129 | 127 | 125 |
| CGAGUGAUGUUCGAAGAGUUGUUAAGCGAUACCAGCUAGGAAACUGGCCCUUGGCAGCGUAAUAAAUAAAUAAAUAAAUGAUCAC [whbob_Ex_Theo_A_th62] | 351 | 414 | 369 | 456 | 322 |
| UUGAGCCGGACGGAAGUCCGGCUCUGCGAGCGAGGACCGGUACGGCCGCCACUCGGUGCAGUGAUGUUGCAUGGCCGCAAGGCCG [#2 Exclusion - Tryptophan A Attempt #4 (HarryS)] | 270 | 232 | 301 | 208 | 324 |
| CUCGUGGGUUUGAGAGGGCUUGUGGGAAGUGAGGAUAUUUAGGGAGAAAGAAGGCACUAUAAAAUAUAGUGAUGUUAUAUAAGGG [SSFMNA.M] | 494 | 138 | 188 | 751 | 347 |
| GGAGCAGGUGAAGGAUAUCCCGGGCCAGAGUGAUGUUCUGGAUCCCUUGCCGUUUCUAAACGGGUGGGAGAAGGUCACUGAUAAG [Bibimati] | 132 | 154 | 234 | 180 | 164 |
| AACCUACGAUCACAAUAGUGAUUGUAGGACUAGGAUAUGCUGAAAAGCAGAAGGAGUGAUGUUCCACUCAUGAAUAACAUGAGAA [FmnAX 4 #OpenEnded #K4Late #CoaxialStacking] | 594 | 340 | 410 | 324 | 270 |
| UGGGCCGCCUGAGGAUAUAGAGACGAGUGAUGUUCGUGGAUAAGAGCCAGUGAUGUUGGGUUAUUUCUAGAAGGCGGGCGAACUU [Exclusion FMN B GF9] | 144 | 95.1 | 98.6 | 164 | 131 |
| AAAGGAUCAGAGAGUGAUGUUCUCUAAUAACGAGGACCGGUACGGCCGCCACUCGAAUAGAUCCAAGUCCUACGAAAAGUAGGAC [Omei inspired 8] | 274 | 217 | 316 | 308 | 210 |
| GUAUCGCUAGGAGGAUAUUUCAUAUAAUAUAUAAAUGGAUAUACGGAGUGAUGUUCCGAUUUACGGAAAGAAGGCCUAGUGAUAC [FMN B 18] | 134 | 183 | 214 | 229 | 202 |
| AAAAUAAACCAGUGAUGUUGGUGUCCAGAUACCAGCGGUAAAAUCCGCCCUUGGCAGCUGUGGACGUACAAAAUAAGUACGUCCU [MatMod 4 - Jieux - Same State - Theophylline A] | 430 | 321 | 463 | 286 | 358 |
| AUUCCCACUUAAGGAUAUCAAGGAGUGAUGUUCCAAAUGGUCCACGUCGCGGCUCUCCGGGCACAAUGAGAAGGUAAAGCUGGGU [theeternabot_exclusion_KL_FMN_B_43] | 278 | 275 | 276 | 370 | 210 |
| UGGUUUAACUGAAGGAGCGGCAAUUGAUAAGUAGAUAUAGUGAUGUUAUAUAAGAUAGAGAGCCAGGUAGGUCGCAGAGGUAUUU [ExArgB.P] | 215 | 218 | 212 | 248 | 197 |
| ACGUCCGGAUUGAUCGUGGGCAUGGUCGAUACCAGUAGUUUAAUCUACCCUUGGCAGCGACAUGAGUGAUGUUCAUGUGCGGUGA [#14 K4 Theophylline A Exclusion] | 194 | 191 | 188 | 402 | 200 |
| AGUGUUUGGUUAGAUACCAGCCGUCUGUGGAUAAUCCUCAGACCGCCAGUGAUGUUGGCAGGCCCUUGGCAGCUAACAGGACAGA [Ersoed] | 198 | 213 | 275 | 233 | 224 |
| AGCAAUAUCACGGCCGCCACUGAAUAUUGUUUUUAUAUUUAUAAAUCUUGCCAGUGAUGUUGGUUCAGGACCGGGUGAGUUAAUA [JR_SSTryptoB_Sub004] | 573 | 603 | 783 | 665 | 412 |
| CAACGAGUGAUGGUCGUUGACGGCCAUCCCGAGGAUAUGGGAUUUUCCAGAAGGCGGGAUCGCCCGGAGUGAUGUUCCGUGAUUU [Same State FMN A GF 15] | 73.3 | 228 | 150 | 221 | 116 |
| UGAUACCAGACUGAUACCAGCAAGUGAUGUUUGUUGAUCAAAAGCAGUCAAAGACUGCUUUGCCCUUGGCAGCAGUCUGGUAUCU [#10 K4 Theophylline B Exclusion] | 167 | 148 | 166 | 276 | 141 |
| AGUGUUGUAUGGCGGUUUGUCACUUAGGAUCAGGAUAUAUAAACAAAUAGAAGGGAUGGCGGAGUGAUGUUCCGCCGGCCGCCAU [FMN A Exl V7] | 132 | 128 | 121 | 126 | 121 |
| AAAAGAAAGUCGGCCGCCACUCAACGCAGUGAUGUUGCAAGACAGAAGACCAGUGAUGUUGGCCAGAGGACCGGGACAAAAGGCC [Same State Typtophan B GF 4] | 591 | 945 | 842 | 435 | 464 |
| AACACUCAGAGAGUGAUGUUCUCUAAUAAACGAGGACCGGUACGGCCGCCACUCGAAUAAGAGUGAGUCCUACGAAAAGUAGGAC [Omei inspired 5 #OpenEnded] | 790 | 726 | 1050 | 1120 | 224 |
| GAGUCCUUUGAAGGAUAUAGACGUCCCGAUCACUCAGUUGGCGAGCGAGUGAUGUUCGUUCCUAUACUAGAAGGUCAAAGCCUCC [theeternabot_sameState_KL_FMN_B_32] | 225 | 193 | 211 | 204 | 205 |
